# B1: EHEE_rd2_0191 (parent)
# chain: TTEYTFTDDEEARRAIEELKKRGLTFRYEKHGTTWRVRVD
# Variants of: B1
# Assay: folding stability dG (cDNA display proteolysis); higher = more stable
# Details: PBS, room temperature
row,Variant,folding stability dG
1,TTEYTFTDDEEAMRAIEELKKRGLTFRYEKHGTTWRVRVD [R13M],2.42 kcal/mol
2,TTEYTFTDDEEANRAIEELKKRGLTFRYEKHGTTWRVRVD [R13N],1.68 kcal/mol
3,TTEYTFTDDEEAQRAIEELKKRGLTFRYEKHGTTWRVRVD [R13Q],1.94 kcal/mol
4,TTEYTFTDDEEASRAIEELKKRGLTFRYEKHGTTWRVRVD [R13S],1.55 kcal/mol
5,TTEYTFTDDEEATRAIEELKKRGLTFRYEKHGTTWRVRVD [R13T],1.83 kcal/mol
6,TTEYTFTDDEEAVRAIEELKKRGLTFRYEKHGTTWRVRVD [R13V],1.69 kcal/mol
7,TTEYTFTDDEEAWRAIEELKKRGLTFRYEKHGTTWRVRVD [R13W],2.52 kcal/mol
8,TTEYTFTDDEEAYRAIEELKKRGLTFRYEKHGTTWRVRVD [R13Y],2.2 kcal/mol
9,TTEYTFTDDEEARAAIEELKKRGLTFRYEKHGTTWRVRVD [R14A],2.1 kcal/mol
10,TTEYTFTDDEEARDAIEELKKRGLTFRYEKHGTTWRVRVD [R14D],1.45 kcal/mol
11,TTEYTFTDDEEAREAIEELKKRGLTFRYEKHGTTWRVRVD [R14E],1.7 kcal/mol
12,TTEYTFTDDEEARFAIEELKKRGLTFRYEKHGTTWRVRVD [R14F],1.64 kcal/mol
13,TTEYTFTDDEEARGAIEELKKRGLTFRYEKHGTTWRVRVD [R14G],1.35 kcal/mol
14,TTEYTFTDDEEARHAIEELKKRGLTFRYEKHGTTWRVRVD [R14H],1.82 kcal/mol
15,TTEYTFTDDEEARIAIEELKKRGLTFRYEKHGTTWRVRVD [R14I],1.93 kcal/mol
16,TTEYTFTDDEEARKAIEELKKRGLTFRYEKHGTTWRVRVD [R14K],2.12 kcal/mol
17,TTEYTFTDDEEARLAIEELKKRGLTFRYEKHGTTWRVRVD [R14L],1.91 kcal/mol
18,TTEYTFTDDEEARMAIEELKKRGLTFRYEKHGTTWRVRVD [R14M],1.97 kcal/mol
19,TTEYTFTDDEEARNAIEELKKRGLTFRYEKHGTTWRVRVD [R14N],1.84 kcal/mol
20,TTEYTFTDDEEARQAIEELKKRGLTFRYEKHGTTWRVRVD [R14Q],1.9 kcal/mol
21,TTEYTFTDDEEARSAIEELKKRGLTFRYEKHGTTWRVRVD [R14S],1.75 kcal/mol

row,Variant,folding stability dG
1,TTEYTFTDDEEARTAIEELKKRGLTFRYEKHGTTWRVRVD [R14T],1.73 kcal/mol
2,TTEYTFTDDEEARVAIEELKKRGLTFRYEKHGTTWRVRVD [R14V],1.78 kcal/mol
3,TTEYTFTDDEEARWAIEELKKRGLTFRYEKHGTTWRVRVD [R14W],1.68 kcal/mol
4,TTEYTFTDDEEARYAIEELKKRGLTFRYEKHGTTWRVRVD [R14Y],1.64 kcal/mol
5,TTEYTFTDDEEARRCIEELKKRGLTFRYEKHGTTWRVRVD [A15C],3.17 kcal/mol
6,TTEYTFTDDEEARREIEELKKRGLTFRYEKHGTTWRVRVD [A15E],0.719 kcal/mol
7,TTEYTFTDDEEARRFIEELKKRGLTFRYEKHGTTWRVRVD [A15F],4.89 kcal/mol
8,TTEYTFTDDEEARRGIEELKKRGLTFRYEKHGTTWRVRVD [A15G],1.06 kcal/mol
9,TTEYTFTDDEEARRHIEELKKRGLTFRYEKHGTTWRVRVD [A15H],1.73 kcal/mol
10,TTEYTFTDDEEARRIIEELKKRGLTFRYEKHGTTWRVRVD [A15I],2.02 kcal/mol
11,TTEYTFTDDEEARRKIEELKKRGLTFRYEKHGTTWRVRVD [A15K],1.97 kcal/mol
12,TTEYTFTDDEEARRLIEELKKRGLTFRYEKHGTTWRVRVD [A15L],2.63 kcal/mol
13,TTEYTFTDDEEARRMIEELKKRGLTFRYEKHGTTWRVRVD [A15M],2.85 kcal/mol
14,TTEYTFTDDEEARRNIEELKKRGLTFRYEKHGTTWRVRVD [A15N],0.878 kcal/mol
15,TTEYTFTDDEEARRQIEELKKRGLTFRYEKHGTTWRVRVD [A15Q],1.29 kcal/mol
16,TTEYTFTDDEEARRRIEELKKRGLTFRYEKHGTTWRVRVD [A15R],1.08 kcal/mol
17,TTEYTFTDDEEARRSIEELKKRGLTFRYEKHGTTWRVRVD [A15S],1.07 kcal/mol
18,TTEYTFTDDEEARRTIEELKKRGLTFRYEKHGTTWRVRVD [A15T],1.94 kcal/mol
19,TTEYTFTDDEEARRVIEELKKRGLTFRYEKHGTTWRVRVD [A15V],2.36 kcal/mol
20,TTEYTFTDDEEARRWIEELKKRGLTFRYEKHGTTWRVRVD [A15W],2.9 kcal/mol
21,TTEYTFTDDEEARRYIEELKKRGLTFRYEKHGTTWRVRVD [A15Y],2.87 kcal/mol

row,Variant,folding stability dG
1,TTEYTFTDDEEARRAAEELKKRGLTFRYEKHGTTWRVRVD [I16A],-0.729 kcal/mol
2,TTEYTFTDDEEARRACEELKKRGLTFRYEKHGTTWRVRVD [I16C],1.58 kcal/mol
3,TTEYTFTDDEEARRAFEELKKRGLTFRYEKHGTTWRVRVD [I16F],1.37 kcal/mol
4,TTEYTFTDDEEARRAGEELKKRGLTFRYEKHGTTWRVRVD [I16G],-0.247 kcal/mol
5,TTEYTFTDDEEARRALEELKKRGLTFRYEKHGTTWRVRVD [I16L],1.64 kcal/mol
6,TTEYTFTDDEEARRAMEELKKRGLTFRYEKHGTTWRVRVD [I16M],2.23 kcal/mol
7,TTEYTFTDDEEARRANEELKKRGLTFRYEKHGTTWRVRVD [I16N],0.255 kcal/mol
8,TTEYTFTDDEEARRATEELKKRGLTFRYEKHGTTWRVRVD [I16T],-0.106 kcal/mol
9,TTEYTFTDDEEARRAVEELKKRGLTFRYEKHGTTWRVRVD [I16V],1.12 kcal/mol
10,TTEYTFTDDEEARRAWEELKKRGLTFRYEKHGTTWRVRVD [I16W],0.024 kcal/mol
11,TTEYTFTDDEEARRAYEELKKRGLTFRYEKHGTTWRVRVD [I16Y],-0.65 kcal/mol
12,TTEYTFTDDEEARRAIAELKKRGLTFRYEKHGTTWRVRVD [E17A],2.25 kcal/mol
13,TTEYTFTDDEEARRAIDELKKRGLTFRYEKHGTTWRVRVD [E17D],1.95 kcal/mol
14,TTEYTFTDDEEARRAIFELKKRGLTFRYEKHGTTWRVRVD [E17F],1.97 kcal/mol
15,TTEYTFTDDEEARRAIGELKKRGLTFRYEKHGTTWRVRVD [E17G],1.71 kcal/mol
16,TTEYTFTDDEEARRAIHELKKRGLTFRYEKHGTTWRVRVD [E17H],1.88 kcal/mol
17,TTEYTFTDDEEARRAIIELKKRGLTFRYEKHGTTWRVRVD [E17I],2.01 kcal/mol
18,TTEYTFTDDEEARRAIKELKKRGLTFRYEKHGTTWRVRVD [E17K],2 kcal/mol
19,TTEYTFTDDEEARRAILELKKRGLTFRYEKHGTTWRVRVD [E17L],2.11 kcal/mol
20,TTEYTFTDDEEARRAIMELKKRGLTFRYEKHGTTWRVRVD [E17M],2.1 kcal/mol
21,TTEYTFTDDEEARRAINELKKRGLTFRYEKHGTTWRVRVD [E17N],2.02 kcal/mol

# — the MegaScale stability set (Tsuboyama et al. 2023)
